B1: Hsp33 oxidised and activated with a 10-fold molar excess of HOCl (Hsp33_(HOCl)) (natural protein)
chain: MPQHDQLHRYLFENFAVRGELVTVSETLQQILENHDYPQPVKNVLAELLVATSLLTATLKFDGDITVQLQGDGPMNLAVINGNNNQQMRGVARVQGEIPENADLKTLVGNGYVVITITPSEGERYQGVVGLEGDTLAACLEDYFMRSEQLPTRLFIRTGDVDGKPAAGGMLLQVMPAQNAQQDDFDHLATLTETIKTEELLTLPANEVLWRLYHEEEVTVYDPQDVEFKCTCSRERCADALKTLPDEEVDSILAEDGEIDMHCDYCGNHYLFNAMDIAEIRNNASPADPQVH
modifications: two intramolecular disulfide bonds (Cys232-Cys234; Cys265/Cys268 fully oxidised) after HOCl treatment

Tests used:
Hsp33 (Escherichia coli) = Hsp33 (Escherichia coli) (UniProt P0A6Y5); conditions: cited from earlier work
AUC = target: the molecule itself; experiment: AUC

| Molecule | Kd (Hsp33 (Escherichia coli)) [nM] | Kd (AUC) [nM] | stoichiometry N (AUC) |
| --- | --- | --- | --- |
| Hsp33 (from UniProt P0A6Y5) | 590 |  |  |
| B1 |  | 570 | 2 |
